Source: patent US10100120B2, “Antibody which specifically binds to human CRTH2” (KYOWA HAKKO KIRIN CO., LTD, priority 2015, dated 2018)

What was measured:
Format in all cases: cell-based
human eosinophils [1] = experiment: Antagonist activity using shape change of human eosinophils as index (Example 19); settings: DKPGD2 0.1-1000 nM, FIG. 16
Method: Eosinophils were separated from human peripheral blood in the same manner as in Example 11. The isolated human eosinophils were suspended with Dulbecco's phosphate buffered saline (hereinafter, referred to as D-PBS (−)) (NACALAI TESQUE, Inc.) and performed a reaction in a 5% CO2 incubator at 37° C. for 1 hour and 30 minutes. Thereafter, the cells were seeded in a 96-well plate at 2×10^5 cells/well using 10% FBS-containing RPMI1640. Next, an isotype control antibody [CELL LAB Rat IgG2b Isotype Control (Beckman Coulter Inc.)] at a final concentration of 10 μg/mL or Lym2 antibody; or small molecular CRTH2 antagonist 00000459 (Cayman Chemical) at a final concentration of 10 μM as a positive control, was added thereto to cause a reaction in a 5% CO2 incubator at 37° C. for 30 minutes.
Next, DKPGD2 (Cayman Chemical) at each of final concentrations of 0.1, 1, 10, 100, and 1000 nM was added thereto to cause a reaction in a 5% CO2 incubator at 37° C. for 60 minutes. After the reaction, the cells were washed twice with ice-cold PBS, Fixation Buffer (BD Biosciences) was added at 200 μL/well, and the resultant was suspended well and allowed to stand at 4° C. for 30 minutes. After that, the cells were washed twice with SM, and shape change of eosinophils was analyzed by flow cytometry (BD Biosciences, FACS CantoII).
The shape change of eosinophils was analyzed based on an increase in Forward Scatter Light (FSC) plot which is an index of the cell size, the cell surface area, or the cell diameter in the analysis using flow cytometry and the percentage (%) of eosinophils detected in the gate of high FSC was calculated based on the FSC of DKPGD2-untreated eosinophils.

human eosinophils [2] = experiment: Eosinophil depletion (cytotoxic) activity in human peripheral blood cells, flow cytometry; settings: Example 8; 0.01-1000 ng/mL, 37° C., 20 hours; FIG. 3
Method: (§1) Human peripheral blood collected by adding a heparin sodium injection liquid was centrifuged at 4° C. and 1500 rpm for 30 minutes, and the plasma was recovered.
(§2) After the plasma was recovered, PBS (NACALAI TESQUE, Inc.) was added to the pellet containing the red blood up to the original volume of blood and the pellet was suspended. Next, to 1 mL of the suspension, 10 mL of hemolyzing solution [solution obtained by diluting 10×RBC Lysis buffer (eBioscience) 10 times with sterile water] was added to be mixed by inversion. The resultant was allowed to stand at room temperature for 10 minutes and centrifuged at room temperature and 1500 rpm for 5 minutes and washed twice with PBS after the supernatant was removed therefrom.
(§3) Thereafter, the cell pellet was suspended with the recovered plasma and the cells were seeded in a 48-well plate at 300 μL/well, each of chLym2, humanized Lym2 antibodies LV0HV0, LV0HV1, and LV0HV2a, or an isotype control antibody [IgG1 antibody prepared according to the method described in Example 5 using a vector encoding an anti-2,4-dinitrophenol (DNP) IgG1 antibody described in Clin Cancer Res 2005, 11(8), 3126 to 3135 (hereinafter, referred to as anti-DNP IgG1 antibody)] were added at each final concentrations of 1000, 100, 33, 11, 3.7, 1.2, 0.4, and 0.01 ng/mL to cause a reaction in a 5% CO2 incubator at 37° C. for 20 hours.
(§4) After the reaction, the cell fluid in each well was recovered, 10 mL of SM was added thereto, 200 μL per sample of CountBright Absolute Counting Beads, for flow cytometry (Molecular Probes) was added as control beads, and the fluid was centrifuged at 4° C. and 2000 rpm for 10 minutes, and then the supernatant was removed. The resultant was washed twice with SM, 10000 μg/mL of IgG from human serum (Sigma-Aldrich Co. LLC) diluted with SM was added at 300 μL/sample and suspended to cause a reaction at 4° C. for 30 minutes. […]
(§5) The cells were washed twice with SM, suspended by SM containing 1% of 7-AAD Staining Solution (BD Biosciences), allowed to stand at 4° C. for 10 minutes, and the fluorescent intensity was analyzed by flow cytometry (BD Biosciences, FACS CantoII).
(§6) Human eosinophils were detected as 7-AAD negative siglec8-PE positive fractions in granulocyte fractions of FSC-SSC deployment. Human basophils were detected as 7-AAD negative fractions, CD123-PC-Cy7 positive fractions, FcεRI-APC positive fractions in lymphocyte fractions of FSC-SSC deployment. The cell depletion activity was evaluated by analyzing the count number of each cell per a certain number of CountBright. […]

human basophils = experiment: Basophil depletion (cytotoxic) activity in human peripheral blood cells, flow cytometry; settings: Example 8; 0.01-1000 ng/mL, 37° C., 20 hours; FIG. 3
Method: as §1, §2, §3, §4, §5, §6

## CCCCCC(=O)CC[C@H]1C(=O)C[C@H](O)[C@@H]1C/C=C\CCCC(=O)O [DKPGD2, 13, 14-dihydro-15-keto prostaglandin D2]
Human eosinophils [1]; 37° C., 60 minutes
  shape change of eosinophils induced by ligand: induced shape change of eosinophils in a concentration-dependent manner

## Cc1c(Cc2ccc3ccccc3n2)c2cc(F)ccc2n1CC(=O)O [OC000459]
Human eosinophils [1]; antibody 10 μg/mL or small molecule 10 μM
  inhibition of DKPGD2-dependent shape change of eosinophils (antagonist activity): inhibited

B1: LV0HV0: humanized Lym2 antibody, VL LV0 (SEQ ID NO: 33), VH HV0 (SEQ ID NO: 49) (antibody, V domains shown)
VH: EVQLVESGGGVVQPGRSLRLSCAASGFTFSNYYMAWVRQAPGKGLEWVATISYDGSSTYYRDSVKGRFTISRDNAKNSLYLQMNSLRAEDTAVYYCARHRGYYYSGAGYFDYWGQGTMVTVSS
VL: DIVMTQTPLSLPVTPGESASISCRSSQSLEYSDGYTYLEWYLQKPGQSPQVLIYGVSNRFSGVPDRFSGSGSGTDFTLKISRVEAEDVGVYYCFQATHDPLTFGQGTKLEIK
Human eosinophils [2]
  cytotoxic activity against eosinophils: comparable to the chimeric Lym2 antibody chLym2
Human basophils
  cytotoxic activity against basophils: comparable to the chimeric Lym2 antibody chLym2

B2: LV0HV2a: humanized Lym2 antibody, VL LV0 (SEQ ID NO: 33), VH HV2a (SEQ ID NO: 53) (antibody, V domains shown)
VH: EVQLVESGGGVVQPGRSLRLSCAASGFTFSNYYMAWVRQAPGKGLEWVATISYDGSSTYYRDSVKGRFTISRDNAKNSLYLQMNSLRAEDTATYYCARHRGYYYSGAGYFDYWGQGVMVTVSS
VL: DIVMTQTPLSLPVTPGESASISCRSSQSLEYSDGYTYLEWYLQKPGQSPQVLIYGVSNRFSGVPDRFSGSGSGTDFTLKISRVEAEDVGVYYCFQATHDPLTFGQGTKLEIK
Human eosinophils [2]
  cytotoxic activity against eosinophils: comparable to the chimeric Lym2 antibody chLym2
Human basophils
  cytotoxic activity against basophils: comparable to the chimeric Lym2 antibody chLym2
